From patent US20170081417A1 (Kyowa Kirin, published 2017)

T1: human OX40 (CD134), full length, expressed on cells (activated human T cells); EL4-OX40 and CHO-OX40 … (human, UniProt P43489 29-277)
T1 sequence: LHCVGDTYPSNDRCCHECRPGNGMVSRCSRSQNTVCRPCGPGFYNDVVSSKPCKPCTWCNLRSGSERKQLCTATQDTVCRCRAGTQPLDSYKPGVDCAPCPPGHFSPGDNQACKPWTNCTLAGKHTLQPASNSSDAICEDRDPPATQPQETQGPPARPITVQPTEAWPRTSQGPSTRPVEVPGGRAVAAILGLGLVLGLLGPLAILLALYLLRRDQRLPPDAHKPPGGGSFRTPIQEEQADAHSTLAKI


Assays:
[1] = target: T2, human OX40 extracellular domain fused to the Fc portion of human IgG1 (hOX40:hFc) (human); assay: ELISA, OX40L-FLAG binding to coated hOX40:hFc, anti-FLAG-HRP
T2 construct: Made in Tn5 insect cells; also called OX40-hIgG1; human OX40:hIgG1 fusion protein
T2 sequence (chain, as listed by the source limits assumed): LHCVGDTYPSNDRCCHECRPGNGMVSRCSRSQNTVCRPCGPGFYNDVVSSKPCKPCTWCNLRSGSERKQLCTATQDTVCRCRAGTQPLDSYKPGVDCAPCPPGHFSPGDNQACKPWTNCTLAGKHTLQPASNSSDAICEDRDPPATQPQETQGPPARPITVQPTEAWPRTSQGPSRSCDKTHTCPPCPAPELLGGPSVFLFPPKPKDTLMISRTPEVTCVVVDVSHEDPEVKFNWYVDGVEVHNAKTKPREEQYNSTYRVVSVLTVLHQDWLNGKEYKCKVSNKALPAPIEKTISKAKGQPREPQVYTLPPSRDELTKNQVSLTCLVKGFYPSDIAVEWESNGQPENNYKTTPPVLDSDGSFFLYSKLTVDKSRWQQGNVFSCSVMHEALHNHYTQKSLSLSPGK
Description: (§1) The ability of 112F32, 112V8, 112Y131, 112Y55, and 112Z5 to block soluble hOX40L binding to coated hOX40:hFc fusion protein was tested using an ELISA protocol (FIG. 5A, Table 3). The plates were coated with hOX40:hFc and after blocking non-specific sites the anti-OX40 antibodies were allowed to bind. Without washing OX40L-FLAG was added to the wells. Bound ligand was detected with anti-FLAG-HRP secondary antibody. Percent inhibition was determined using the following formula (100−(OD sample/OD maximum OX40L binding))*100. 112V8, 112Y55, and 112Y131 prevented 85% of the binding of soluble OX40L to hOX40:hFc. 112F32 prevented approximately 70% of the binding of soluble hOX40L to hOX40:hFc and 112Z5 blocked 67% of the maximal binding.

[2] = target: T2, human OX40 extracellular domain fused …; assay: ELISA, blocking of OX40L-FLAG binding to coated hOX40:hFc
Description: as §1

[3] = target: T1, human OX40 (CD134), full length, …; assay: cell-based or functional assay
[4] = target: T1, human OX40 (CD134), full length, …; assay: flow cytometry titration on activated human T cells, anti-human IgG-PE
Description: (§2) Following twenty minute incubation on ice, the cells were washed once and fixed ten minutes with 1% paraformaldehyde. After a final wash the cells were resuspended in staining buffer and the samples were acquired using FACScan or FACS Calibur flow cytometers (Becton Dickinson Biosciences, Palo Alto, Calif.), and the data were analyzed using Cellquest (Becton Dickinson Biosciences) or Flow Jo (TreeStar, Inc., San Carlos, Calif.) software. The activated T cells were also stained with mouse anti-human OX40 antibody L106 (Becton Dickinson), which was directly conjugated to phycoerythrin or whose binding was detected with anti-mouse IgG-PE (Southern Biotechnology Associates.) OX40L Blocking Assays: To determine if the anti-human OX40 antibodies could block OX40L binding to soluble OX40 both ELISA and flow cytometric protocols were used. In the ELISA 96 well Nunc flat bottom plates were coated with recombinant soluble hOX40:hFc at 2 μg/ml in carbonate buffer (pH9.4) for one hour at 37° C. The plates were washed with PBS/0.1% Tween 20 and Superblock (Pierce) was added to the wells to block non-specific binding. The test antibodies were diluted to 1 μg/ml in PBS/Tween and added to the plates. After one hour incubation at 37° C., FLAG tagged recombinant soluble human OX40L (Alexis Biochemicals, San Diego, Calif.) was added to the appropriate wells without washing out the anti-OX40 antibodies. Following one hour incubation, the plates were washed and an anti-FLAG-peroxidase conjugated antibody (Sigma) was added to the wells for one hour at 37° C. The TMB substrate was added, after ten minutes the reaction was stopped with H₂SO₄, and the results were read at 450 nm using a microplate reader. In the flow cytometric assay, human CD4+ T cells were purified and activated with PHA+IL2 for two days. The cells were washed and resuspended in staining buffer and then incubated with increasing amounts of human anti-human OX40 antibodies for twenty minutes on ice, from 0.005-50 μg/ml. Soluble recombinant OX40L-FLAG was then added to the cells. The cells were washed and incubated with anti-FLAG conjugated to PE (Sigma). After another wash, the cells were fixed with 1% paraformaldehyde and analyzed on a FACScan or FACScalibur.

[5] = target: T1, human OX40 (CD134), full length, …; assay: flow cytometry, blocking of OX40L-FLAG binding to activated human T cells
From the text: as §2, with “The” for “Following twenty minute incubation on ice, the cells were washed once and fixed ten minutes with 1% paraformaldehyde. After a final wash the cells were resuspended in staining buffer and the samples were acquired using FACScan or FACS Calibur flow cytometers (Becton Dickinson Biosciences, Palo Alto, Calif.), and the data were analyzed using Cellquest (Becton Dickinson Biosciences) or Flow Jo (TreeStar, Inc., San Carlos, Calif.) software. The”
Slightly different results were obtained when a flow cytometric based assay was used to monitor blockade of soluble OX40L binding to activated human T cells that express OX40 (FIG. 5B). Activated human T cells were labeled with anti-OX40 antibodies followed by soluble flag tagged-human OX40L. Binding of OX40L was detected with anti-FLAG-PE antibody. Percent inhibition was determined using the same formula, i.e., (100−(sample/maximum binding))*100.

| percent inhibition of OX40L binding [1] [%] | IC50 [2] [µg/mL] | ADCC % Lysis at 10 µg/ml [3] [%] | BMAX Geo Mean [4] | Kd [4] [nM] | IC50 [5] [µg/mL] | Binder |
| --- | --- | --- | --- | --- | --- | --- |
| 85 | 0.073 | 54.2 | 162 geometric mean fluorescence | 14 | 0.9 | 112Y55 human anti-human OX40 monoclonal antibody (hybridoma ATCC No. PTA-7220) (antibody, V domains shown) VH: QITLKESGPTLVKPTQTLTLSCTFSGFSLSTSGVGVGWIRQPPGKALEWLALIHWDDAERYSPSLKSRLTITKDTSKNQVVLTMTNMDLVDTATYYCAHTRGAFDIWGQGTMVTVSS VL: EIVLTQSPGTLSLSPGERAILSCRASQSVSSSFLAWYQQKPGQAPRLLIYGAFSRATGIPDRFSGSGSGTDFTLTISRLEPEDFAVYYCQQYDSSRTFGQGTKVEIK |
| 85 | 0.069 | 18 | 171 geometric mean fluorescence | 25 | 0.91 | 112Y131 human anti-human OX40 monoclonal antibody (hybridoma ATCC No. PTA-7218) (antibody, V domains shown) VH: QITLKESGPTLVKPTQTLTLTCTFSGFSLSTSGVGVGWIRQPPGKALEWLALIYWDDHSPYSPSLKSRLTITKDTSKNQVVLTMTNMDPVDTATYYCARTRGAFDIWGQGTMVTVSS VL: EIVLTQSPATLSLSPGERATLSCRASQGVSSYLAWYQQKPGQAPRLLIYDASNRATGIPARFSGSGPGTDFTLTISSLEPEDFAVYYCQQRSNWHPTFGQGTKVEIK |
